Tests used:
[1] = target: T1, recombinant human CD40 extracellular domain with a C-terminal human IgG1 Fc domain and 6His tag (BioLegend) (human); test: SPR Biacore T200, SVX-3001 amine-coupled to CM5, CD40-Fc analyte, 1:1 model; value 3
T1 construct: Bought reagent; also called CD40-Fc
Protocol: (§1) Method: Kinetic analysis by surface plasmon resonance (SPR) was carried out using the Biacore T200 (GE Healthcare). HBS-EP+ buffer was used as running buffer throughout.
(§2) Target immobilisation level: 600 RU. Wash solution: Ethanolamine.
(§3) Injection parameters for the sample were contact time: 120 seconds, flow rate: 30 μI/min, dissociation time: 300 seconds. Injection parameters for regeneration were contact time: 30 seconds, flow rate: 30 μI/min, stabilisation period: 0 seconds. Regeneration solution was either 10 mM glycine-HCl buffer pH 1.5 or 50 mM NaOH. The concentrations of CD40-His and CD40-Fc used for the kinetic analysis were […]. The model 1:1 binding was used for curve fitting.

[2] = target: T2, recombinant human CD40 extracellular domain with C-terminal 6His tag (Novoprotein) (human); test: SPR Biacore T200, SVX-3001 amine-coupled to CM5, CD40-6His analyte, 1:1 model; value 2
T2 construct: Bought reagent; also called CD40-6His; CD40-His
T2 sequence (P25942 21-193): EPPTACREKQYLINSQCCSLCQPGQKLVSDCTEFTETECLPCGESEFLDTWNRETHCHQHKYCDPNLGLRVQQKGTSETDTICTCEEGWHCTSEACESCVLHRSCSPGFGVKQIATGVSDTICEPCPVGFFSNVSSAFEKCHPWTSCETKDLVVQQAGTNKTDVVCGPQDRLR
Protocol: as §1, §2, §3

[3] = target: T2, recombinant human CD40 extracellular …; test: SPR Biacore T200, SVX-3001 amine-coupled to CM5, CD40-6His analyte, 1:1 model; value 1
Protocol: as §1, §2, §3

[4] = target: T3, CD40 expressed on the surface of human peripheral blood mononuclear cells (human, UniProt P25942 21-277); test: flow cytometry on human PBMC
T3 construct: Native CD40 on primary human cells (PBMC, B cells, monocyte-derived dendritic cells); also called native CD40 protein; CD40 on the surface of B cells
T3 sequence (P25942 21-277 limits assumed): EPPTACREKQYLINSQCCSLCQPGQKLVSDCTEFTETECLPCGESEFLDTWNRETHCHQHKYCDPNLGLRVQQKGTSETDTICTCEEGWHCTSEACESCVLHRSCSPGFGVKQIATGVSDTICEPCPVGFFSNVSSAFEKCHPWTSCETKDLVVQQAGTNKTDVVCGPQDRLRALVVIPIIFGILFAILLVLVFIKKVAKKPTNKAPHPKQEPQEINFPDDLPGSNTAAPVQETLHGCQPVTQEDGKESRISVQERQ
Protocol: PMBC were stained with an anti-human CD19 antibody labelled with PE. […] Lymphocytes were gated based on FSC-A and SSC-A signals.
FACS staining was carried out on 10⁶ human PBMC per well. […] Cells were washed twice with FACS buffer and resuspended in 20 μl of BV421 anti-mouse Ig diluted in FACS buffer and incubated for 30 minutes. Cells were washed twice with FACS buffer and resuspended in 20 μl of PE anti-human CD19 diluted in FACS buffer and incubated for 30 minutes. Cells were washed once with FACS buffer and once with PBS and resuspended in 100 μl of 1% formaldehyde in PBS and incubated for 20 minutes. Cells were washed twice with FACS buffer and resuspended in 200 μl of FACS buffer for analysis.
FACS staining controls included an unstained control, PE anti-human CD19 and BV421 mouse anti-human Ig single stain controls and human IgG1 isotype control. Cell staining was analysed using a FACS Canto II flow cytometer (BD). PMT voltages and gates for analysis were set using the FACS staining controls.

[5] = target: T1, recombinant human CD40 extracellular …; test: SPR Biacore T200, SVX-3001 amine-coupled to CM5, CD40-Fc analyte, 1:1 model; value 2
Protocol: as §1, §2, §3

[6] = target: T2, recombinant human CD40 extracellular …; test: SPR Biacore T200, SVX-3001 amine-coupled to CM5, CD40-6His analyte, 1:1 model; value 3
Protocol: as §1, §2, §3

[7] = target: T1, recombinant human CD40 extracellular …; test: SPR Biacore T200, SVX-3001 amine-coupled to CM5, CD40-Fc analyte, 1:1 model; average of three
Protocol: as §1, §2, §3

[8] = target: T1, recombinant human CD40 extracellular …; test: SPR Biacore T200, SVX-3001 amine-coupled to CM5, CD40-Fc analyte, 1:1 model; value 1
Protocol: as §1, §2, §3

[9] = target: T2, recombinant human CD40 extracellular …; test: SPR Biacore T200, SVX-3001 amine-coupled to CM5, CD40-6His analyte, 1:1 model; average of three
Protocol: as §1, §2, §3

T1 sequence (P25942 21-193): as the sequence (P25942 21-193) above

B1: Humanized anti-human CD-40 antibody SVX-3001 (antibody, human IgG1, kappa, V domains shown)
VH: QVQLQQSGPGLVKPSQSLSLTCAVSGYSITTNYYWNWIRQAPGKGLEWVGYIRYDGTTYYAPSLKGRFSITRDTSKNQFFLQLTSVTPEDTATYYCARLDYWGQGTLVTVSS
VL: DIVMTQSPLSLSVSLGDRASISCRSSQSLENSNGNTFLNWFQQKPGQSPQLLIYRVSNRFSGVPDRFSGSGSGTDFTLKISRVEAEDEGVYFCLQVTHVPYTFGGGTKLEIKR
notes: Human IgG1 heavy chain constant region and human kappa light chain constant region; made in HEK 293T cells, used as supernatant or Protein G purified; also called humanised agonist anti-human CD40 antibody; Selvax01
Q: For B1, which Kd [1] is on record?
A: 0.308 nM

Q: What about the koff [1] of the same binder?
A: 0.000203 s⁻¹

Q: What about the kon [1] of the same binder?
A: 661000 M⁻¹ s⁻¹

Q: And the Kd [2]?
A: 6.5 nM

Q: And the koff [2]?
A: 0.00409 s⁻¹

Q: And the kon [2]?
A: 628000 M⁻¹ s⁻¹

Q: What about the Kd [3] of the same binder?
A: 5.33 nM

Q: What about the koff [3] of the same binder?
A: 0.00381 s⁻¹

Q: What about the kon [3] of the same binder?
A: 715000 M⁻¹ s⁻¹

Q: Does B1 bind [4]?
A: binds

Q: What about the Kd [5] of the same binder?
A: 1.12 nM

Q: And the koff [5]?
A: 0.000555 s⁻¹

Q: What about the kon [5] of the same binder?
A: 497000 M⁻¹ s⁻¹

Q: And the Kd [6]?
A: 6.51 nM

Q: And the koff [6]?
A: 0.00375 s⁻¹

Q: What about the kon [6] of the same binder?
A: 576000 M⁻¹ s⁻¹

Q: And the Kd [7]?
A: 0.583 nM

Q: What about the koff [7] of the same binder?
A: 0.00033 s⁻¹

Q: And the kon [7]?
A: 621000 M⁻¹ s⁻¹

Q: And the Kd [8]?
A: 0.323 nM

Q: What about the koff [8] of the same binder?
A: 0.000232 s⁻¹

Q: And the kon [8]?
A: 717000 M⁻¹ s⁻¹

Q: And the Kd [9]?
A: 6.11 nM

Q: What about the koff [9] of the same binder?
A: 0.00388 s⁻¹

Q: What about the kon [9] of the same binder?
A: 640000 M⁻¹ s⁻¹

From patent publication US20230227567A1 (SELVAX, published 2023)
